We go through two molecules from article PMC6848931, “Exportin-1-Dependent Nuclear Export of DEAD-box Helicase DDX3X is Central to its Role in Antiviral Immunity” (Cells, 2019).

This experiment concerns the target Exportin-1-Ran-GTP complex (human, UniProt O14980 1-1071; P62826 1-216, Q69L). The experiment is described as follows: AUC; sedimentation velocity with Ran-GTP present; proteins incubated together at equimolar concentrations at 20 °C for 30 min in GF1 buffer (20 mM Tris-Cl pH 7.5, 100 mM NaCl, 5 mM MgOAc, 2 mM DTT); 40,000 rpm, 280 nm, c(s) analysis. Particulars: both partners purified.

B1: 6His-DDX3X(1-580) (domain or fragment)
chain: MSHVAVENALGLDQQFAGLDLNSSDNQSGGSTASKGRYIPPHLRNREATKGFYDKDSSGWSSSKDKDAYSSFGSRSDSRGKSSFFSDRGSGSRGRFDDRGRSDYDGIGSRGDRSGFGKFERGGNSRWCDKSDEDDWSKPLPPSERLEQELFSGGNTGINFEKYDDIPVEATGNNCPPHIESFSDVEMGEIIMGNIELTRYTRPTPVQKHAIPIIKEKRDLMACAQTGSGKTAAFLLPILSQIYSDGPGEALRAMKENGRYGRRKQYPISLVLAPTRELAVQIYEEARKFSYRSRVRPCVVYGGADIGQQIRDLERGCHLLVATPGRLVDMMERGKIGLDFCKYLVLDEADRMLDMGFEPQIRRIVEQDTMPPKGVRHTMMFSATFPKEIQMLARDFLDEYIFLAVGRVGSTSENITQKVVWVEESDKRSFLLDLLNATGKDSLTLVFVETKKGADSLEDFLYHEGYACTSIHGDRSQRDREEALHQFRSGKSPILVATAVAARGLDISNVKHVINFDLPSDIEEYVHRIGRTGRVGNLGLATSFFNERNINITKDLLDLLVEAKQEVPSWLENMAYEHHY
notes: DEAD-box helicase 3, X-linked (DDX3X), human, residues 1-580 of the 662-residue protein; Cloned in pCOLD-IV with an N-terminal 6His tag; no removal of the tag is described; also called wild-type DDX3X(1‒580); DEAD-box helicase 3, X-linked; source: E. coli BL21(DE3), purified (Ni-NTA, Superdex 200 SEC)
Take B1: the binding result was “binds”.

B2: DDX3X(1-168) (domain or fragment)
chain: MSHVAVENALGLDQQFAGLDLNSSDNQSGGSTASKGRYIPPHLRNREATKGFYDKDSSGWSSSKDKDAYSSFGSRSDSRGKSSFFSDRGSGSRGRFDDRGRSDYDGIGSRGDRSGFGKFERGGNSRWCDKSDEDDWSKPLPPSERLEQELFSGGNTGINFEKYDDIPV
notes: DEAD-box helicase 3, X-linked (DDX3X), human, residues 1-168; The purification section names only the 1-580 constructs; the expression and purification of the 1-168 fragment are not described on their own; also called DDX3X(1–168) fragment; source: purified recombinant; truncations were cloned in pCOLD-IV for bacterial expression
In the case of B2, the binding result is “binds”.
